{"source": "patent US20100135997A1", "about": "(MEDGENE, published 2010)", "binders": {"B1": {"name": "SEQ ID NO 61 (receptor)", "chain": "MGHLPKPTLWAEPGSVITMGQPVTLRCQGGQETQEYRLYREKKTAPWITRIPQELVKKGQFPIPSITWEHAGRYRCYYGSDTAGRSESSDPLELVVTGAYIKPTLSAQPSPVVNSGGNVTLQCDSQVAFDGFILCKEGEDEHPQCLNSQPHARGSSRAIFSVGPVSPSRRWWYRCYAYDSNSPYEWSLPSDLLELLVL", "notes": "mutated soluble two domain ILT-2"}, "B2": {"name": "SEQ ID NO 69 (receptor)", "chain": "MGHLPKPTLWAEPGSVITLSQPVTLRCQGGQETQEYRLYREKKTAPWITRIPQELVKKGQFPIPSITWEHAGRYRCYYGSDTAGRSESSDPLELVVTGVYIKPTLSAQPSPVVNSGGNVTLQCDSQVAFDGFILCKEGEDEHPQCLNSQPHARGSSRAIFSVGPVSPSRRWWYRCYAYDSNSPYEWSLPSDLLELLVL", "notes": "as for B1"}, "B3": {"name": "SEQ ID NO 70 (receptor)", "chain": "MGHLPKPTLQAEPGSVITQGSPVTLRCQGGQETQEYRLYREKKTAPWITRIPQELVKKGQFPIPSITWEHAGRYRCVIQRGTAGRSESSDPLELVVTGVYIKPTLSAQPSPVVNSGGNVTLQCDSQVAFDGFILCKEGEDEHPQCLNSQPHARGSSRAIFSVGPVSPSRRWWYRCYAYDSNSPYEWSLPSDLLELLVL", "notes": "as for B1"}, "B4": {"name": "SEQ ID NO 73 (receptor)", "chain": "MGHLPKPTLWAEPGSVITQGSPVTLRCQGGQETQEYRLYREKKTAPWITRIPQELVKKGQFPIPSITWEHAGRYRCMQYTLTAGRSESSDPLELVVTGVYIKPTLSAQPSPVVNSGGNVTLQCDSQVAFDGFILCKEGEDEHPQCLNSQPHARGSSRAIFSVGPVSPSRRWWYRCYAYDSNSPYEWSLPSDLLELLVL", "notes": "as for B1"}, "B5": {"name": "SEQ ID NO 78 (receptor)", "chain": "MGHLPKPTLWAEPGSVITMDQPVTLRCQGGQETQEYRLYREKKTAPWITRIPQELVKKGQFPIPSITWEHAGRYRCYYGSQGGLRSESSDPLELVVTGVYIKPTLSAQPSPVVNSGGNVTLQCDSQVAFDGFILCKEGEDEHPQCLNSQPHARGSSRAIFSVGPVSPGRRWWYRCYAYDSNSPYEWSLPSDLLELLVL", "notes": "as for B1"}, "B6": {"name": "SEQ ID NO 62 (receptor)", "chain": "MGHLPKPTLWAEPGSVITMDQPVTLRCQGGQETQEYRLYREKKTAPWITRIPQELVKKGQFPIPSITWEHAGRYRCYYGSDTAGRSESSDPLELVVTGVYIKPTLSAQPSPVVNSGGNVTLQCDSQVAFDGFILCKEGEDEHPQCLNSQPHARGSSRAIFSVGPVSPGRRWWYRCYAYDSNSPYEWSLPSDLLELLVL", "notes": "as for B1"}, "B7": {"name": "SEQ ID NO 72 (receptor)", "chain": "MGHLPKPTLWAEPGSVITQGSPVTLRCQGGQETQEYRLYREKKTAPWITRIPQELVKKGQFPIPSITWEHAGRYRCYYGTQTAGRSESSDPLELVVTGVYIKPTLSAQPSPVVNSGGNVTLQCDSQVAFDGFILCKEGEDEHPQCLNSQPHARGSSRAIFSVGPVSPSRRWWYRCYAYDSNSPYEWSLPSDLLELLVL", "notes": "as for B1"}, "B8": {"name": "SEQ ID NO 65 (receptor)", "chain": "MGHLPKPTLWAEPGSVITMDQPVTLRCQGGQETQEYRLYREKKTAPWITRIPQELVKKGQFPIPSITWEHAGRYRCYYGSDTSQWSASSDPLELVVTGVYIKPTLSAQPSPVVNSGGNVTLQCDSQVAFDGFILCKEGEDEHPQCLNSQPHARGSSRAIFSVGPVSPSRRWWYRCYAYDSNSPYEWSLPSDLLELLVL", "notes": "as for B1"}, "B9": {"name": "SEQ ID NO 64 (receptor)", "chain": "MGHLPKPTLWAEPGSVITMQRPVTLRCQGGQETQEYRLYRERKTAPWITRIPQELVKKGQFPIPSITWEHAGRYRCYYGSDTAGRSESSDPLELVVTGAYIKPTLSAQPSPVVNSGGNVTLQCDSQVAFDGFILCKEGEDEHPQCLSSQPHARGSSRAIFSVGPVSPSRRWWYRCYAYDSNSPYEWSLPSDLLELLVL", "notes": "as for B1"}, "B10": {"name": "SEQ ID NO 76 (receptor)", "chain": "MGHLPKPTLWAEPGSVITQGSPVTLRCQGGQETQEYRLYREKKTAPWITRIPQELVKKGQFPIPSITWEHAGRYRCYYGTQTAGRSESSDPLELVVTGAYIKPTLSAQPSPVVNSGGNVTLQCDSQVAFDGFILCKEGEDEHPQCLNSQPHARGSSRAIFSVGPVSPSRRWWYRCYAYDSNSPYEWSLPSDLLELLVL", "notes": "as for B1"}, "B11": {"name": "SEQ ID NO 63 (receptor)", "chain": "MGHLPKPTLWAEPGSVITLMQPVTLRCQGGQETQEYRLYREKKTAPWITRIPQELVKKGQFPIPSITWEHAGRYRCYYGSDTAGRSESSDPLELVVTGAYIKPTLSAQPSPVVNSGGNVTLQCDSQVAFDGFILCKEGEDEHPQCLNSQPHARGSSRAIFSVGPVSPSRRWWYRCYAYDSNSPYEWSLPSDLLELLVL", "notes": "as for B1"}, "B12": {"name": "SEQ ID NO 77 (receptor)", "chain": "MGHLPKPTLWAEPGSVITQGSPVTLRCQGGQETQEYRLYREKKTAPWITRIPQELVKKGQFPIPSITWEHAGRYRCMQYTLTAGRSESSDPLELVVTGAYIKPTLSAQPSPVVNSGGNVTLQCDSQVAFDGFILCKEGEDEHPQCLNSQPHARGSSRAIFSVGPVSPSRRWWYRCYAYDSNSPYEWSLPSDLLELLVL", "notes": "as for B1"}, "B13": {"name": "SEQ ID NO 71 (receptor)", "chain": "MGHLPKPTLWAEPGSVITQGSPVTLRCQGGQETQEYRLYREKKTAPWITRIPQELVKKGQFPIPSITWEHAGRYRCYYGSQGGLRSESSDPLELVVTGVYIKPTLSAQPSPVVNSGGNVTLQCDSQVAFDGFILCKEGEDEHPQCLNSQPHARGSSRAIFSVGPVSPSRRWWYRCYAYDSNSPYEWSLPSDLLELLVL", "notes": "as for B1"}, "B14": {"name": "SEQ ID NO 75 (receptor)", "chain": "MGHLPKPTLWAEPGSVITQGSPVTLRCQGGQETQEYRLYREKKTAPWITRIPQELVKKGQFPIPSITWEHAGRYRCYYGSQGGLRSESSDPLELVVTGAYIKPTLSAQPSPVVNSGGNVTLQCDSQVAFDGFILCKEGEDEHPQCLNSQPHARGSSRAIFSVGPVSPSRRWWYRCYAYDSNSPYEWSLPSDLLELLVL", "notes": "as for B1"}, "B15": {"name": "SEQ ID NO 79 (receptor)", "chain": "MGHLPKPTLWAEPGSVITMDQPVTLRCQGGQETQEYRLYREKKTAPWITRIPQELVKKGQFPIPSITWEHAGRYRCYYGTQTAGRSESSDPLELVVTGVYIKPTLSAQPSPVVNSGGNVTLQCDSQVAFDGFILCKEGEDEHPQCLNSQPHARGSSRAIFSVGPVSPGRRWWYRCYAYDSNSPYEWSLPSDLLELLVL", "notes": "as for B1"}, "B16": {"name": "SEQ ID NO 74 (receptor)", "chain": "MGHLPKPTLWAEPGSVITQGSPVTLRCQGGQETQEYRLYREKKTAPWITRIPQELVKKGQFPIPSITWEHAGRYRCYYGSDTSQWSASSDPLELVVTGVYIKPTLSAQPSPVVNSGGNVTLQCDSQVAFDGFILCKEGEDEHPQCLNSQPHARGSSRAIFSVGPVSPSRRWWYRCYAYDSNSPYEWSLPSDLLELLVL", "notes": "as for B1"}, "B17": {"name": "SEQ ID NO 68 (receptor)", "chain": "MGHLPKPTLWAEPGSVITLFQPVTLRCQGGQETQEYRLYREKKTAPWITRIPQELVKKGQFPIPSITWEHAGRYRCYYGSDTAGRSESSDPLELVVTGAYIKPTLSAQPSPVVNSGGNVTLQCDSQVAFDGFILCKEGEDEHPQCLNSQPHARGSSRAIFSVGPVSPSRRWWYRCYAYDSNSPYEWSLPSDLLELLVL", "notes": "as for B1"}}, "data": [{"target": "T1, HLA-A*0201 loaded with the Carcinoembryonic antigen (CEA)-derived … peptide (biotin on the C-terminal biotinylation tag)", "T1 construct": "Soluble, biotinylated, immobilised on a streptavidin chip", "assay": "Biacore SPR", "method": "SPR measures changes in refractive index expressed in response units (RU) near a sensor surface within a small flow cell, a principle that can be used to detect receptor ligand interactions and to analyse their affinity and kinetic parameters. The probe flow cells were prepared by immobilising the pMHC complexes in flow cells via biotin-tag binding. The assay was then performed by passing soluble ILT-like molecule over the surfaces of the different flow cells at a constant flow rate, measuring the SPR response in doing so.", "units": {"Kd": "nM", "koff": "s⁻¹"}, "values": [{"binder": "B1", "Kd": "≤ 1000", "koff": "≤ 2"}, {"binder": "B2", "Kd": "≤ 1000", "koff": "≤ 2"}, {"binder": "B3", "Kd": "≤ 1000", "koff": "≤ 2"}, {"binder": "B4", "Kd": "≤ 1000", "koff": "≤ 2"}, {"binder": "B5", "Kd": "≤ 1000", "koff": "≤ 2"}, {"binder": "B6", "Kd": "≤ 1000", "koff": "≤ 2"}, {"binder": "B7", "Kd": "≤ 1000", "koff": "≤ 2"}, {"binder": "B8", "Kd": "≤ 1000", "koff": "≤ 2"}, {"binder": "B9", "Kd": "≤ 1000", "koff": "≤ 2"}, {"binder": "B10", "Kd": "≤ 1000", "koff": "≤ 2"}, {"binder": "B11", "Kd": "≤ 1000", "koff": "≤ 2"}, {"binder": "B12", "Kd": "≤ 1000", "koff": "≤ 2"}, {"binder": "B13", "Kd": "≤ 1000", "koff": "≤ 2"}, {"binder": "B14", "Kd": "≤ 1000", "koff": "≤ 2"}, {"binder": "B15", "Kd": "≤ 1000", "koff": "≤ 2"}, {"binder": "B16", "Kd": "≤ 1000", "koff": "≤ 2"}, {"binder": "B17", "Kd": "≤ 1000", "koff": "≤ 2"}]}]}
